Results: publication PMC10772735, “Characterization of erythroferrone oligomerization and its impact on BMP antagonism” (The Journal of Biological Chemistry, 2023)
Changes are numbered by the printed parent chain. Numbers in names are those of the source. Where “and” joins values, the source holds several entries; their conditions need not be identical. Identical values can stand only once. Like-named read-outs stand apart in the source and are kept apart here.

Legend:
BMP6 [1] = molecular target: BMP6 (UniProt P22004); experiment: SPR competition (BMP6 + ERFE over Alk3-Fc captured on protein A chip); details: curve maximum near the ~300 s dotted line, RU is residual BMP6 binding to Alk3-Fc (lower RU = more competition by ERFE) …, read off a plot
[2] = molecular target: Alk3-Fc ECD (Homo sapiens) (UniProt P36894); details: cited from earlier work
[3] = molecular target: the molecule itself; experiment: AUC; sedimentation velocity, ΔC1Q ERFE mutants, 0.5 mg/ml, 40,000 RPM, 20 °C, absorbance at 230 nm, never frozen protein after dialysis; oligomeric states assigned qualitatively from approximate masses
BMP6 [4] = molecular target: T1, BMP6 (UniProt P22004 375-513); experiment: cell-based or functional assay
T1 sequence (looked up): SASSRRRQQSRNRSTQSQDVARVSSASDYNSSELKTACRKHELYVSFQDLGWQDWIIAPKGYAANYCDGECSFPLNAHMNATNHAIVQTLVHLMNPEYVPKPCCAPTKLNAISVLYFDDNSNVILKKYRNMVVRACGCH

[5] = molecular target: the molecule itself; experiment: non-reducing SDS-PAGE; purified ERFE analysed by SDS-PAGE under reducing and nonreducing conditions; shows only disulfide-linked species
BMP6, P22004 = molecular target: T2, BMP6, P22004; experiment: SPR competition (BMP6 + ERFE over Alk3-Fc captured on protein A chip); details: chain shown with the change, curve maximum near the ~300 s dotted line, read off a plot
T2 chain: T1 sequence (looked up)

[6] = molecular target: the molecule itself; experiment: AUC; sedimentation velocity, full-length ERFE constructs, 0.5 mg/ml, 20,000 rpm, 20 °C, absorbance at 230 nm, freshly purified never frozen protein after dialysis (20 mM Hepes pH 7.5, 150 mM NaCl, 5 mM CaCl2); oligomeric states assigned qualitatively from approximate masses
BMP7 = molecular target: T3, BMP7 (UniProt P18075 293-431); experiment: cell-based or functional assay
T3 sequence (looked up): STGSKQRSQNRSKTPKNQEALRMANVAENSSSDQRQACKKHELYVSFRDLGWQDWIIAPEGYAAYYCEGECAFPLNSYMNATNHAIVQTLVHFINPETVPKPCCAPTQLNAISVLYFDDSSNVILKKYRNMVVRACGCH

BMP2 = BMP2 (UniProt P12643 283-396); experiment: cell-based or functional assay
BMP6 [7] = molecular target: T1, BMP6; experiment: cell-based or functional assay; remark: listed apart in the source
GDF5 = molecular target: T4, GDF5 (UniProt P43026 382-501); experiment: cell-based or functional assay
T4 sequence (looked up): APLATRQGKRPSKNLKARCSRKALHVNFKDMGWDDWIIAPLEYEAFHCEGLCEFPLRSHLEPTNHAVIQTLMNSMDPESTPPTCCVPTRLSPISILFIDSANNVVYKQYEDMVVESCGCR

BMP6 [8] = molecular target: T1, BMP6; experiment: cell-based or functional assay; remark: listed apart in the source

BMP2, sequence (P12643 283-396): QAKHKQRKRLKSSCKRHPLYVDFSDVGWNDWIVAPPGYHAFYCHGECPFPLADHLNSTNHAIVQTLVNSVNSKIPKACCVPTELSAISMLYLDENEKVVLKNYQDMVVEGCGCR
Alk3-Fc ECD (Homo sapiens), sequence (P36894 24-152): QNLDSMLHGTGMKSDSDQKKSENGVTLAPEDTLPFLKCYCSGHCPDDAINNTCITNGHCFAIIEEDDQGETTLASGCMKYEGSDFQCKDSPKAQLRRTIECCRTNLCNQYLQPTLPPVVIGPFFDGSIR

ΔC1Q ERFE (from UniProt Q4G0M1) CLR* (center PGP in the CLR to SSS); C155S; C157S
response (BMP6 [1]; 10 nM BMP6 + 80 nM CLR*Cys*ΔC1Q ERFE): 19 RU | response (BMP6 [1]; 10 nM BMP6 + 160 nM CLR*Cys*ΔC1Q ERFE): 17 RU

BMP6 (from UniProt P22004)
Kd [2]: 62.5 nM

B1: Cys∗ΔC1Q ERFE (domain or fragment, human, UniProt Q4G0M1 44-207, looked up)
chain: PPPGNELPRGPGESRAGPAARPPEPTAERAHSVDPRDAWMLFVRQSDKGVNGKKRSRGKAKKLKFGLPGPPGPPGPQGPPGPIIPPEALLKEFQLLLKGAVRQRERAEPEPSTSGPAGPVAASLAPVSATAGEDDDDVVGDVLALLAAPLAPGPRAPRVEAAFL
notes: erythroferrone (ERFE), human, stop codon at C208, Cys155 and Cys157 mutated to serines (C208 is not in the truncated chain); source: Expi293, transfected, purified; not shown: FLAG, N-terminal, kept
stoichiometry N [3]: 3 | IC50 of inhibition of 2.5 nM BMP6 signalling, luciferase reporter, BRITER cells (BMP6 [4]): 97 nM

B2: ΔC1Q ERFE (domain or fragment, human, UniProt Q4G0M1 44-207, looked up)
chain: B1 chain with S112C, S114C
notes: erythroferrone (ERFE), human, construct from residue 44 with a stop codon introduced at C208, removing the entire C1Q domain; source: Expi293, transfected, purified; not shown: FLAG, N-terminal, kept
stoichiometry N [3]: 3 | stoichiometry N [5]: 2 | IC50 of inhibition of 2.5 nM BMP6 signalling, luciferase reporter, BRITER cells (BMP6 [4]): 7.8 nM

B3: CLR∗Cys∗ΔC1Q ERFE (domain or fragment)
chain: B1 chain with P74S, G75S, P76S
IC50 of inhibition of 2.5 nM BMP6 signalling, luciferase reporter, BRITER cells (BMP6 [4]): 290 nM

B4: CLR∗ΔC1Q ERFE (domain or fragment)
chain: B1 chain with P74S, G75S, P76S, S112C, S114C
stoichiometry N [3]: 2 | IC50 of inhibition of 2.5 nM BMP6 signalling, luciferase reporter, BRITER cells (BMP6 [4]): 27 nM

B5: N-terminally flag-tagged hERFE (residues 44–354), WT erythroferrone, Q4G0M1 CLR* (center PGP in the CLR to SSS); C155S; C157S; C208S (protein)
chain: PPPGNELPRGPGESRAGPAARPPEPTAERAHSVDPRDAWMLFVRQSDKGVNGKKRSRGKAKKLKFGLPGPPGPSSSQGPPGPIIPPEALLKEFQLLLKGAVRQRERAEPEPSTSGPAGPVAASLAPVSATAGEDDDDVVGDVLALLAAPLAPGPRAPRVEAAFLSRLRRDALVERRALHELGVYYLPDAEGAFRRGPGLNLTSGQYRAPVAGFYALAATLHVALGEPPRRGPPRPRDHLRLLICIQSRCQRNASLEAIMGLESSSELFTISVNGVLYLQMGQWTSVFLDNASGCSLTVRSGSHFSAVLLGV
response (BMP6, P22004; 10 nM BMP6 + 5 nM CLR*Cys* ERFE, RU is residual BMP6 binding to Alk3-Fc (lower RU = more competition by ERFE), BMP6 …): 11 RU | response (BMP6, P22004; 10 nM BMP6 + 10 nM CLR*Cys* ERFE, RU is residual BMP6 binding to Alk3-Fc (lower RU = more competition by ERFE), BMP6 …): 8.7 RU | response (BMP6, P22004; 10 nM BMP6 + 20 nM CLR*Cys* ERFE, RU is residual BMP6 binding to Alk3-Fc (lower RU = more competition by ERFE), BMP6 …): 6.2 RU | response (BMP6, P22004; 10 nM BMP6 + 40 nM CLR*Cys* ERFE, RU is residual BMP6 binding to Alk3-Fc (lower RU = more competition by ERFE), BMP6 …): 4 RU | response (BMP6, P22004; 10 nM BMP6 + 80 nM CLR*Cys* ERFE, RU is residual BMP6 binding to Alk3-Fc (lower RU = more competition by ERFE), BMP6 …): 2.3 RU | response (BMP6, P22004; 10 nM BMP6 + 160 nM CLR*Cys* ERFE, RU is residual BMP6 binding to Alk3-Fc (lower RU = more competition by ERFE) …): 1.2 RU

B6: Cys∗ ERFE (natural protein, human, UniProt Q4G0M1 44-354, looked up)
chain: B5 chain with S74P, S75G, S76P
notes: erythroferrone (ERFE), human, residues 44-354, Cys155, 157 and 208 mutated to serines; source: some mutants αFlag resin first; not shown: FLAG, N-terminal, kept
stoichiometry N [6]: 3 | IC50 of inhibition of 2.5 nM BMP6 signalling, luciferase reporter, BRITER cells (BMP6 [4]): 8.7 nM

B7: N-terminally flag-tagged hERFE (residues 44–354), WT erythroferrone (natural protein, human, UniProt Q4G0M1 44-354, looked up)
chain: B5 chain with S74P, S75G, S76P, S112C, S114C, S165C
notes: erythroferrone (ERFE, FAM132B), human, residues 44-354; By AUC a mixture of trimer, hexamer and a little high molecular weight species; also called WT ERFE; N-Flag ERFE; not shown: FLAG, N-terminal, kept
IC50 of ERFE inhibition of BMP7 (2.5 nM) signalling, BMP responsive luciferase assay (BRE promoter) (BMP7): 8.9 nM | IC50 of ERFE inhibition of BMP2 (2.5 nM) signalling, BMP responsive luciferase assay (BRE promoter) (BMP2): 170 nM | IC50 of ERFE inhibition of BMP6 (2.5 nM) signalling, BMP responsive luciferase assay (BRE promoter) (BMP6 [7]): 5.2 nM | IC50 of ERFE inhibition of GDF5 (2.5 nM) signalling, BMP responsive luciferase assay (BRE promoter) (GDF5): 130 nM | stoichiometry N [6]: 3 and 6 | stoichiometry N [5]: 2

B8: N94A ERFE (natural protein, human, UniProt Q4G0M1 44-354, looked up)
chain: B5 chain with N51A, S74P, S75G, S76P, S112C, S114C, S165C
IC50 of inhibition of 2.5 nM BMP6 signalling, luciferase reporter, BRITER cells (BMP6 [8]): 21 nM

B9: D90A ERFE (natural protein, human, UniProt Q4G0M1 44-354, looked up)
chain: B5 chain with D47A, S74P, S75G, S76P, S112C, S114C, S165C
IC50 of inhibition of 2.5 nM BMP6 signalling, luciferase reporter, BRITER cells (BMP6 [8]): 13 nM
